For one data set, the system named is MDA-MB-231 xenograft. As to the kind of experiment: MDA-MB-231 murine xenograft efficacy model. In kind it is in vivo, mouse. In outline: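 Female BALB/c nude mice bearing subcutaneous MDA-MB-231 tumours (10×10^6 cells in PBS/Matrigel), treated from ~150-200 mm^3 mean volume. Free MMAE given i.v. QW×4 at 0.6 or 0.06 mg/kg in 25 mM histidine/10% sucrose pH 7. Caliper volumes twice weekly; TGI (%) calculated against vehicle group.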

The nature of data set [1]: Murine plasma stability assay. In kind it is in vitro ADME. Conditions: mouse, 2 μM, 37° C., read-out: Murine plasma stability assay, T1/2. On the procedure: Frozen plasma was thawed at 37° C. and centrifuged at 4000 rpm to remove any clots and transferred to 96-well reaction plates by WuXi AppTec. Test compounds were added to the reaction plate at a final concentration of 2 μM and either stopped immediately or incubated at 37° C. for 5 minutes, 10 minutes, 30 minutes, 60 minutes, or 120 minutes. At the end of incubation, stop solution consisting of 200 ng/mL tolbutamide and 200 ng/mL labetalol in ACN was added to precipitate protein and mixed thoroughly. Samples were then transferred to a bioanalysis plate and shaken for 10 minutes prior to HPLC-MS/MS analysis of percent remaining compound.
Table 14 tabulates the plasma stability for each of the three PDCs tested.

A short description of data set [2]: CMC formulation buffer screen. It is filed as physicochemical. The settings on record: 0.5 mg/mL. On the procedure:
Exemplary conjugate agents (e.g., sortilin binding agents), referred to in the present Example as “peptide drug conjugates” or “PDCs” were assessed in a formulation screen to determine an appropriate vehicle for in vivo studies and to assess precipitation risk. PDC solutions were made up to 0.5 mg/mL in the following buffers: 25 mM Histidine 10% sucrose pH 7, 50 mM acetate/acetic acid, 10% sucrose pH 5, 1×PBS pH 7.4, Saline, 50 mM HEPES 10% sucrose pH 7. Solubility was assessed using a shake flask method and the test compound concentration of the filtrate was confirmed using HPLC-UV.
The following buffers were screened: 25 mM Histidine 10% sucrose pH 7, 50 mM acetate/acetic acid, 10% sucrose pH 5, 1×PBS pH 7.4, Saline, 50 mM HEPES 10% sucrose pH 7. The PDCs were soluble in all buffers tested (Table 1), and we proceed to use 25 mM Histidine, 10% sucrose pH 7 as our buffer of choice for our in vivo studies.

A short description of data set [3]: Murine hematotoxicity assay. It is filed as in vivo, mouse. The settings on record: 3 mg/kg i.v. QW×4, BALB/c mice. On the procedure:
(§1) Murine hematotoxicity experiments were conducted at Charles River Laboratories and the care and use of animals was conducted in accordance with the regulations of the Association for Assessment and Accreditation of Laboratory Animal Care (AAALAC). Wild type BALB/c, female, 7-8 weeks, weighing approximately 18-22 g were randomized and dosed intravenously with control or test articles at a QW×4 schedule. Dosing volume was adjusted based on body weight and was administered at 10 mL/Kg. PDCs were dissolved in 25 mM Histidine 10% sucrose pH 7 and 3 mg/kg was administered. Free MMAE payload was also tested, and similarly dissolved in 25 mM Histidine 10% sucrose pH 7 and administered to the mice at a dose of […] by i.v. injection at a QW×4 schedule. 3 days following each dose, 150 μL of whole blood was collected via submandibular method and placed in K2 EDTA tubes stored on ice. Blood neutrophil counts were performed on the day of collection by IDEXX labs. Body weights were recorded twice a week until study endpoint.
as §1, with “As outlined in the material” for “Murine hematotoxicity experiments were conducted at Charles River Laboratories”, “methods” for “the care and use”, “Example 1, wild” for “animals was conducted in accordance with the regulations of the Association for Assessment and Accreditation of Laboratory Animal Care (AAALAC). Wild”, “PDCs were dissolved in 25 mM Histidine 10% sucrose pH 7 and 3 mg/kg was administered.” left out

Each structure is given as a SMILES string.

Turning to `CC[C@H](C)[C@@H]([C@@H](CC(=O)N1CCC[C@H]1[C@H](OC)[C@@H](C)C(=O)N[C@H](C)[C@@H](O)c1ccccc1)OC)N(C)C(=O)[C@@H](NC(=O)[C@H](C(C)C)N(C)C(=O)OCc1ccc(NC(=O)[C@H](CCCNC(N)=O)NC(=O)[C@@H](NC(=O)CCCC(=O)NCCC(=O)N(C)CC(=O)N(C)CC(=O)N(C)CC(=O)N(C)CC(=O)N[C@@H](C)C(=O)N2CCC[C@H]2C(=O)N[C@@H](CCCNC(=N)N)C(=O)N[C@@H](Cc2c[nH]c3ccccc23)C(=O)N[C@@H](CC(=O)O)C(=O)N[C@@H](C)C(=O)N2CCC[C@H]2C(=O)N[C@@H](CC(C)C)C(=O)N[C@@H](CCCNC(=N)N)C(=O)N[C@@H](CC(=O)O)C(=O)N2CCC[C@H]2C(=O)N[C@@H](C)C(=O)N[C@@H](CC(C)C)C(=O)N[C@@H](CCCNC(=N)N)C(=O)N[C@@H](CCC(N)=O)C(=O)N[C@@H](CC(C)C)C(=O)N[C@@H](CC(C)C)C(=O)O)C(C)C)cc1)C(C)C` [PRGN_WT_PDC], the “tumor growth inhibition, dose dependence” value in the data set with MDA-MB-231 xenograft (3, 1, 0.3 mg/kg i.v. QW×4) is “dose-dependent tumor growth inhibition”. In addition, in the data set with MDA-MB-231 xenograft (PDC at each dose, free MMAE at equivalency to 3 mg/kg PDC), the “body weight variation (Example 6)” value is “mirrored that observed with vehicle treatment”. In addition, in the data set with MDA-MB-231 xenograft (PDCs 3 mg/kg, free MMAE at molar equivalency (0.6 mg/kg)), the “body weight loss (Example 8)” value is on record as “body weight loss tracked each other”. Moreover, the half-life in data set [1] worked out at 17.1 min. The “result (buffer screening)” value in data set [2] (25 mM Histidine 10% sucrose pH 7) is on record as “clear solution”; in data set [2] (50 mM HEPES 10% sucrose pH 7) it was “clear solution”; in data set [2] (50 mM acetate/acetic acid, 10% sucrose pH 5), “clear solution”; in data set [2] (1x PBS pH 7.4) it was “clear solution”; in data set [2] (Saline), “clear solution”. Also, the “blood neutrophil counts compared to vehicle or MMAE treatment” value in data set [3] is on record as “reduced neutrophil counts”.

The record behind these values is patent US20260183411A1, “TARGETING SORTILIN” (priority 2024, published 2026).
